Measured values reported in US20200247897A1, “THERAPEUTIC ANTIBODIES BASED ON MUTATED IGG HEXAMERS” (GENMAB B.V., priority 2017, published 2020).

Columns and labels:
HCT 116 = test: Drug combination screen (ATPlite, Synergy Score), HCT 116; settings: compound in combination with IgG1-hDR5-01-G56T-E430G + IgG1-hDR5-05-E430G; HCT 116; 120 hour ATPlite, 6x6 matrix
SW480 = test: Drug combination screen (ATPlite, Synergy Score), SW480; type: cell-based, human; settings: compound in combination with IgG1-hDR5-01-G56T-E430G + IgG1-hDR5-05-E430G; SW480; 72 hour ATPlite, 6x6 matrix
SNU-C2B = test: Drug combination screen (ATPlite, Synergy Score), SNU-C2B; settings: compound in combination with IgG1-hDR5-01-G56T-E430G + IgG1-hDR5-05-E430G; SNU-C2B; 72 hour ATPlite, 6x6 matrix
DLD-1 = test: Drug combination screen (ATPlite, Synergy Score), DLD-1; settings: compound in combination with IgG1-hDR5-01-G56T-E430G + IgG1-hDR5-05-E430G; DLD-1; 120 hour ATPlite, 6x6 matrix
LS-411N = test: Drug combination screen (ATPlite, Synergy Score), LS-411N; type: cell-based, human; settings: compound in combination with IgG1-hDR5-01-G56T-E430G + IgG1-hDR5-05-E430G; LS-411N; 72 hour ATPlite, 6x6 matrix

B1: TNF-related apoptosis-inducing ligand (protein, UniProt P50591 1-281, looked up)
Tumor necrosis factor ligand …: MAMMEVQGGPSLGQTCVLIVIFTVLLQSLCVAVTYVYFTNELKQMQDKYSKSGIACFLKEDDSYWDPNDEESMNSPCWQVKWQLRQLVRKMILRTSEETISTVQEKQQNISPLVRERGPQRVAAHITGTRGRSNTLSSPNSKNEKALGRKINSWESSRSGHSFLSNLHLRNGELVIHEKGFYYIYSQTYFRFQEEIKENTKNDKQMVQYIYKYTSYPDPILLMKSARNSCWSKDAEYGLYSIYQGGIFELKENDRIFVSVTNEHLIDMDHEASFFGAFLVG
Synergy Score HCT-116 (HCT 116): 0 | Synergy Score SW480 (SW480): 0.9 | Synergy Score SNU-C2B (SNU-C2B): 0.2 | Synergy Score DLD-1 (DLD-1): 0 | Synergy Score LS-411N (LS-411N): 0.1
